Measured values reported in the supplement of paper PMC11246515.
± gives the standard deviation of the averaged measurements.

Assay: total protein half-life in vivo (active degradation + dilution); higher = more stable protein
[1] = E. coli NCM3722 delta-clpP delta-lon delta-hslV, growth: N-lim chemostat, doubling time 6 h
[2] = E. coli NCM3722 delta-clpP, growth: N-lim chemostat, doubling time 6 h
[3] = E. coli NCM3722 delta-hslV, growth: N-lim chemostat, doubling time 6 h
[4] = E. coli NCM3722 delta-lon, growth: N-lim chemostat, doubling time 6 h
[5] = E. coli NCM3722 delta-smpB, growth: N-lim chemostat, doubling time 6 h
[6] = wild type E. coli NCM3722, growth: C-lim chemostat, doubling time 3 h
[7] = wild type E. coli NCM3722, growth: C-lim chemostat, doubling time 6 h
[8] = wild type E. coli NCM3722, growth: C-lim chemostat, doubling time 12 h
[9] = wild type E. coli NCM3722, growth: N-lim chemostat, doubling time 6 h
[10] = wild type E. coli NCM3722, growth: N-lim chemostat, doubling time 12 h
[11] = wild type E. coli NCM3722, growth: P-lim chemostat, doubling time 6 h
[12] = wild type E. coli NCM3722, growth: P-lim chemostat, doubling time 12 h

| Substance | total protein half-life in vivo [1] | total protein half-life in vivo [2] | total protein half-life in vivo [3] | total protein half-life in vivo [4] | total protein half-life in vivo [5] | total protein half-life in vivo [6] | total protein half-life in vivo [7] | total protein half-life in vivo [8] | total protein half-life in vivo [9] | total protein half-life in vivo [10] | total protein half-life in vivo [11] | total protein half-life in vivo [12] |
| --- | --- | --- | --- | --- | --- | --- | --- | --- | --- | --- | --- | --- |
| MYQPVALFIGLRYMRGRAADRFGRFVSWLSTIGITLGVMALVTVLSVMNGFERELQNNILGLMPQAILSSEHGSLNPQQLPETAVKLDGVNRVAPITTGDVVLQSARSVAVGVMLGIDPAQKDPLTPYLVNVKQTDLEPGKYNVILGEQLASQLGVNRGDQIRVMVPSASQFTPMGRIPSQRLFNVIGTFAANSEVDGYEMLVNIEDASRLMRYPAGNITGWRLWLDEPLKVDSLSQQKLPEGSKWQDWRDRKGELFQAVRMEKNMMGLLLSLIVAVAAFNIITSLGLMVMEKQGEVAILQTQGLTPRQIMMVFMVQGASAGIIGAILGAALGALLASQLNNLMPIIGVLLDGAALPVAIEPLQVIVIALVAMAIALLSTLYPSWRAAATQPAEALRYE [P0ADC3] | 6.47 ± 0.46 h | 6.838 ± 0.034 h | 6.01 ± 0.34 h | 6.53 ± 1.3 h | 6.43 ± 0.65 h | 3.11 ± 0.068 h | 5.78 ± 1.3 h | 12.3 ± 0.59 h | 5.8 ± 0.06 h | 13.1 ± 1.6 h | 6.178 ± 0.04 h | 12.3 ± 1.1 h |
| MYTLNWQPPYDWSWMLGFLAARAVSSVETVADSYYARSLAVGEYRGVVTAIPDIARHTLHINLSAGLEPVAAECLAKMSRLFDLQCNPQIVNGALGRLGAARPGLRLPGCVDAFEQGVRAILGQLVSVAMAAKLTARVAQLYGERLDDFPEYICFPTPQRLAAADPQALKALGMPLKRAEALIHLANAALEGTLPMTIPGDVEQAMKTLQTFPGIGRWTANYFALRGWQAKDVFLPDDYLIKQRFPGMTPAQIRRYAERWKPWRSYALLHIWYTEGWQPDEA | 6.48 h | – | – | – | – | 2.32 ± 0.17 h | 2.85 h | 4.47 h | 1.34 h | 1.62 h | 3.45 h | – |
| MYYPFVRKALFQLDPERAHEFTFQQLRRITGTPFEALVRQKVPAKPVNCMGLTFKNPLGLAAGLDKDGECIDALGAMGFGSIEIGTVTPRPQPGNDKPRLFRLVDAEGLINRMGFNNLGVDNLVENVKKAHYDGVLGINIGKNKDTPVEQGKDDYLICMEKIYAYAGYIAINISSPNTPGLRTLQYGEALDDLLTAIKNKQNDLQAMHHKYVPIAVKIAPDLSEEELIQVADSLVRHNIDGVIATNTTLDRSLVQGMKNCDQTGGLSGRPLQLKSTEIIRRLSLELNGRLPIIGVGGIDSVIAAREKIAAGASLVQIYSGFIFKGPPLIKEIVTHI [P0A7E1] | 6.89 ± 0.98 h | 6.3 ± 1.1 h | 6.7 ± 0.85 h | 6.48 ± 0.29 h | 6.46 ± 0.65 h | 3.04 ± 0.24 h | 5.72 ± 0.16 h | 13.1 ± 0.45 h | 6.26 ± 0.34 h | 12.5 ± 0.72 h | 6.03 ± 0.28 h | 14.2 ± 1.6 h |
| P0AAI3 | 4.9 ± 0.24 h | 5.097 ± 0.043 h | 4.76 ± 0.23 h | 4.88 ± 0.19 h | 4.46 ± 0.14 h | 3.11 ± 0.11 h | 5.51 ± 0.52 h | 10.8 ± 0.55 h | 4.53 ± 0.27 h | 8.44 ± 0.27 h | 6.15 ± 0.37 h | 10.2 ± 0.18 h |
| P0AES2 | 4.25 ± 0.51 h | 3.729 ± 0.03 h | 3.64 ± 0.5 h | 3.41 ± 0.14 h | 3.21 ± 0.19 h | 3.03 ± 0.049 h | 5.26 ± 0.72 h | 8.83 ± 0.4 h | 3.14 ± 0.086 h | 4.57 ± 0.082 h | 5.38 ± 0.73 h | 8.99 ± 0.022 h |
| P0AGE9 | 4.58 ± 0.064 h | 4.71 ± 0.71 h | 4.68 ± 0.31 h | 5.1 ± 0.21 h | 4.28 ± 0.29 h | 3.06 ± 0.069 h | 5.43 ± 0.12 h | 9.89 ± 1.2 h | 4.64 ± 0.056 h | 7.237 ± 0.026 h | 5.85 ± 0.2 h | 11.9 ± 0.51 h |
